Target: T1, carcinoembryonic antigen (CEA) expressed on LS 174T cells (human, UniProt P06731 35-685)
T1 sequence (looked up): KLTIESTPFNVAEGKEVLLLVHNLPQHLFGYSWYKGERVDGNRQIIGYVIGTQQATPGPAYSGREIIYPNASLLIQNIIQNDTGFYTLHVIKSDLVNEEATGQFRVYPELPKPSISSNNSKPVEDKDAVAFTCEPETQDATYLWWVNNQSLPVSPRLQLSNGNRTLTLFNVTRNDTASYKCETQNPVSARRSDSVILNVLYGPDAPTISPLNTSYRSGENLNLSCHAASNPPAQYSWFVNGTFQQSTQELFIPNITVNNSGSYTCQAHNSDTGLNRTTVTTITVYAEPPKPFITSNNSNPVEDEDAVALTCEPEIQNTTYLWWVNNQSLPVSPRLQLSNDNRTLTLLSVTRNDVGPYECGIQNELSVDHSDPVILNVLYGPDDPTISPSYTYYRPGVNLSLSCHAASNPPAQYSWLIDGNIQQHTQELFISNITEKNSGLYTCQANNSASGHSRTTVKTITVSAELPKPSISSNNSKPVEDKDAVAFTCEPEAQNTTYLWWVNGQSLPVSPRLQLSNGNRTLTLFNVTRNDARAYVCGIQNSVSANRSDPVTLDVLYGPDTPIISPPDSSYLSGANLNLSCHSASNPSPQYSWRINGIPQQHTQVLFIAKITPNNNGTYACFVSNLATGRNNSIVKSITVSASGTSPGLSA
Assay: cell-based or functional assay

B1: cAb-CEA5-βL conjugate (other)
chain: QVQLVESGGGSVQAGGSLRLSCAASGDTYGSYWMGWFRQAPGKEREGVAAINRGGGYTVYADSVKGRFTISRDTAKNTVYLQMNSLRPDDTADYYCAASGVLGGLHEDWFNYWGQGTQVTVSSAHHSEDPSSKAPKAPMGTPVSEKQLAEVVANTITPLMKAQSVPGMAVAVIYQGKPHYYTFGKADIAANKPVTPQTLFELGSISKTFTGVLGGDAIARGEISLDDAVTRYWPQLTGKQWQGIRMLDLATYTAGGLPLQVPDEVTDNASLLRFYQNWQPQWKPGTTRLYANASIGLFGALAVKPSGMPYEQAMTTRVLKPLKLDHTWINVPKAEEAHYAWGYRDGKAVRVSPGMLDAQAYGVKTNVQDMANWVMANMAPENVADASLKQGIALAQSRYWRIGSMYQGLGWEMLNWPVEANTVVEGSDSKVALAPLPVAEVNPPAPPVKASWVHKTGSTGGFGSYVAFIPEKQIGIVMLANTSYPNPARVEAAYHILEALQHHHHHH
For B1, which “concentration of 125I-labelled conjugate in LS 174T tumor xenografts against other tissues in nude mice” value is on record?
The value was over 10 fold.
